This data set in a line: amyloid nucleation score (Sup35N fusion, yeast selection) (log enrichment); library NNK1; higher = more nucleation; inactive = no reads after selection. The method, boiled down: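 Three technical output replicates were used for random libraries. Psi-negative yeast expressing peptides of 20 random codons fused to Sup35N were induced with 100 μM copper sulfate for 24 hours and grown 7 days at 30°C on medium lacking adenine and uracil, and input and output plasmid inserts were Illumina-sequenced, excluding sequences with under 100 input reads. The nucleation score is the DiMSum log enrichment of output over input reads, centred on the mode score of non-aggregating sequences.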

± gives the uncertainty stated by the source.

For GRTVPDYLMVRSATNIRYGF, the amyloid nucleation score was -1.19 ± 1.7. The value for GSMLLHLIILSILFFDRVES was 0.148 ± 0.29; that for VLAPF was “inactive”. The value for PVLWASMVN was -0.243 ± 0.49; that for ASAWARNVVRSTVMKVSWVG was 0.543 ± 0.45. Substance LYNIVCLSDIL registered an amyloid nucleation score of 5.88 ± 0.061.

For QSSLMLYDERRSNWIKHLAT, the amyloid nucleation score is -0.232 ± 0.37. For ADRRLW, the amyloid nucleation score was -0.04 ± 0.32. Regarding PCSSFVNCKIMFLTLMDVVW, the amyloid nucleation score was determined as 7.739 ± 0.056. Regarding SWFSRMGTCYDFNSKWSCLL, the amyloid nucleation score was determined as 0.654 ± 0.66. For the substance KSPRFASTYPLSSSYSLRVI, the amyloid nucleation score was -0.327 ± 0.28.

With ISGSHFVSLPV, the amyloid nucleation score is 0.518 ± 0.38. Turning to TRMITWRPFRSSWVFTNLYE, the amyloid nucleation score stood at 2.04 ± 0.19. The value for HIVQRCFHVIYCSRVFYVLY was 0.386 ± 0.53; that for NRRLIIVNFVQSKDTCEWRG was 2.77 ± 0.21; that for FRGEVYELEIKGKILSSVFV was 0.121 ± 0.24.

Consider YLIEFCPL, for which the amyloid nucleation score is -0.225 ± 0.34.

In the case of SHTHEHKFSSSRCGELNSEK, the amyloid nucleation score was -0.902 ± 0.38. With MGRRRAPRGGFILRYGCPCR, the amyloid nucleation score was -0.039 ± 0.73. In the case of RRQYFN, the amyloid nucleation score was -0.855 ± 0.45.

Consider ELTNTFTV, for which the amyloid nucleation score was -0.335 ± 0.37.

Substance SEIYSTWNKV showed an amyloid nucleation score of 0.002 ± 0.48. For the substance FRKLKTAYDFFHCRCPHSNA, the amyloid nucleation score amounted to 0.373 ± 0.78. Regarding RVSAMNEGMRIVCWLVFFRP, the amyloid nucleation score was -0.166 ± 0.9. As for VVKLRHYAEKICGSETELG, the amyloid nucleation score was 0.003 ± 0.51.

Substance RSFFPSNRDTTRPQATFVAR came in with an amyloid nucleation score of 1.31 ± 0.68. The value for AFYIRIGVHFPQ was -0.525 ± 1.1; that for ACDLNIIWADNSDYLIYVIS was 0.341 ± 0.36. The value for VCMISAQYYLDIMMGRCNVI was 0.468 ± 0.36. Regarding SRMLPVMFSGP, the amyloid nucleation score was -1.06 ± 0.89.

Turning to LMLTGRD, the amyloid nucleation score is -0.462 ± 1.2. The value for ISIRIEDFLYSQ was 0.237 ± 0.57; that for DSELRMVISLYFCWLWSEWS was -0.623 ± 0.6; that for TFLSTLIALISRFSRSESWM was 1.24 ± 0.93. VRGSVGANGQHVPEDMTVRM showed an amyloid nucleation score of 0.786 ± 0.44. In the case of VLAVCKVYASWYFTFWMF, the amyloid nucleation score was 4 ± 0.088. With WIKLRLGFKRSFIPECGFLG, the amyloid nucleation score is -0.208 ± 0.54. FVDSFVNIWLIKTFSRIVVD returned an amyloid nucleation score of 0.161 ± 0.3. The value for SQPSMPNSVGGDTFG was -0.658 ± 0.49; that for GACGGKFRVYGKGLILWVRS was 0.253 ± 0.37. For VWVKSHLY, the amyloid nucleation score was -0.537 ± 0.25. Take PISMKQVKREEMGFTPAVSS: the amyloid nucleation score was -0.352 ± 0.95.

On to TMLTWASRRLDYFSGALCFM, for which the amyloid nucleation score is -0.119 ± 0.45. As to TFYGY, the amyloid nucleation score is -0.487 ± 1.4.

For NFRSFYKQF, the amyloid nucleation score is -0.451 ± 1.4. For SNWLFWFIKMGQFQDSICYA, the amyloid nucleation score was -0.616 ± 1.4. The value for VNVNNLRRTYNIRWVVGPGL was 5.57 ± 0.064; that for DVDYLYPLYLVAGFMTNVRK was 0.535 ± 0.25; that for DLRAVNLNSYSLLDSFTCFF was 5.59 ± 0.06. On to VFLSCHQSLRVFVACYWHWY, for which the amyloid nucleation score turned out to be 0.672 ± 0.33.

LFRFDYCLPGRFNRFWPDIS: the amyloid nucleation score turned out to be 1.03 ± 0.18. In turn, RCSQVGEFHFGPTDARLMGK yielded an amyloid nucleation score of 0.245 ± 0.39. The value for LCGGWLMGAGRFDGR was 0.862 ± 0.54; that for PVSFRILIVEVGLLCRLGAI was 0.165 ± 0.75; that for CMAHIYCWDICYNERWGFYI was 4.11 ± 0.052. Regarding MMLSGFDIIYGIALCPLHVQ, the amyloid nucleation score is -0.14 ± 0.3. Regarding NNMLAWWVSLTSSQT, the amyloid nucleation score turned out to be 0.512 ± 0.39.

For WCGKACFVYKSHGQGG, the amyloid nucleation score was 0.235 ± 0.53. Take VPWLKGAVDPVTRFGV: the amyloid nucleation score was -0.016 ± 0.78. As for YRHSDANKHLGGAIQF, the amyloid nucleation score was -0.519 ± 0.53. Take HARTSRVRNDSSRAALNARW: the amyloid nucleation score is -0.392 ± 0.36.

With LYRSGSVMSSATHYRGAHLC, the amyloid nucleation score was -0.556 ± 0.77. The value for DAWEDGSKMYESLGV was -1.01 ± 0.56; that for FFRTSLCYDLVNSDEVDIIV was 0.411 ± 0.51.

Regarding LNYDLWTKILNDVVVVCNRF, the amyloid nucleation score was -0.185 ± 0.4.

In the case of WEFRRWGLRLHLSFLASLGA, the amyloid nucleation score is -0.015 ± 0.25. For the substance CKEINL, the amyloid nucleation score was -0.374 ± 0.6. As to KLQVGSPN, the amyloid nucleation score is -0.053 ± 1.4.

LQWEVSSLNVLRFPRNMERC: the amyloid nucleation score was 0.289 ± 0.4. Take MIHEVTLY: the amyloid nucleation score is 0.359 ± 0.41.

For the origin of these results see the supplement of paper PMC12042874.
